Data on one molecule can be found in US12116636B2, “Methods for evaluating tumor cell spheroids using 3D microfluidic cell culture device” (Dana-Farber Cancer Institute, Inc., priority 2017, dated 2024).

In the assay the test system is MC38 MDOTS. Briefly: RNA-seq of MDOTS after ex vivo treatment. The settings on record: Day 6. Format: cell-based, murine. An excerpt:
RNA is collected from a subset of the MDOTs within the device after the supernatants have been collected and cDNA libraries for RNA sequencing is generated to evaluate global transcriptome changes associated with treatment regimen on single samples per drug treatment. These types of data may be generated from a variety of clinical specimens. The RNA Advance tissue RNA isolation method (Beckman Coulter) is utilized, which is a bead wash based separation technique, which facilitates elution volumes amenable to sample input for RNA-Seq library preparation. Automated library preparation can be performed using as little as 10 ng of good quality RNA. The RNA Access method from Illumina is utilized, which enriches for the coding region of the genome. Libraries are sequenced on the NextSeq500 platform, as 75 bp Single End to generate approximately 20 million reads per sample. With appropriate adaptors, 24 samples are multiplexed on each NextSeq500 run. The concentration [ng/ul], yield [ng] and quality of RNA (high RIN #by bioanalyzer) derived from the MDOTS are more than sufficient to ensure good quality libraries for subsequent sequencing (FIG. 15).
The STAR RNA sequencing alignment tool (Spliced Transcripts Alignment to a Reference) [STAR_2.5.0a]) is utilized to align the data to the genome (RefSeq gene annotations). […]

B1: IFNγ: interferon gamma used as MC38 MDOTS treatment in RNA-seq (protein, UniProt P01580 23-155, looked up)
Interferon gamma: HGTVIESLESLNNYFNSSGIDVEEKSLFLDIWRNWQKDGDMKILQSQIISFYLRLFEVLKDNQAISNNISVIESHLITTFFSNSKAKKDAFMSIAKFEVNNPQVQRQAFNELIRVVHQLLPESSLRKRKRSRC
In the case of B1, the “expression of IFNγ genes incl. CXCL10, CXCL11, PD-L1, IDO1, IDO2 (RNA-seq) in MC38 MDOTS” value was “induced”.
